{"source": "the supplement of paper PMC9112550", "about": "“Optimization of the antimicrobial peptide Bac7 by deep mutational scanning” (BMC Biology, 2022);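 further: peptides expressed intracellularly from a pBAD plasmid library in pooled LB shake-flask culture, induced with 0.3% L-arabinose, DNA abundance read by NGS, three biological replicates, DESeq2 with apeglm shrinkage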", "data": [{"test_system": "Escherichia coli TOP10", "experiment": "shrunken log2 fold change of peptide-encoding DNA abundance (4.5 h post-induction vs induction); higher = less antimicrobial activity (less host growth inhibition)", "conditions": "time post-induction: 4.5 h; library: site-saturation at positions 5, 18, 19, 20", "values": [{"sequence": "RRIRIRPPRLPRPRPRPWMSPRP", "shrunken log2 fold change": -0.266}, {"sequence": "RRIRIRPPRLPRPRPRPWQNPRP", "shrunken log2 fold change": 0.00641}, {"sequence": "RRIRIRPPRLPRPRPRPWQWPRP", "shrunken log2 fold change": -0.108}, {"sequence": "RRIRIRPPRLPRPRPRPWRCPRP", "shrunken log2 fold change": -0.107}, {"sequence": "RRIRIRPPRLPRPRPRPWRRPRP", "shrunken log2 fold change": 1.46}, {"sequence": "RRIRIRPPRLPRPRPRPWSSPRP", "shrunken log2 fold change": -0.1}, {"sequence": "RRIRIRPPRLPRPRPRPWTGPRP", "shrunken log2 fold change": -0.0257}, {"sequence": "RRIRIRPPRLPRPRPRPWVEPRP", "shrunken log2 fold change": -0.211}, {"sequence": "RRIRIRPPRLPRPRPRPWVTPRP", "shrunken log2 fold change": -0.0476}, {"sequence": "RRIRIRPPRLPRPRPRPWVVPRP", "shrunken log2 fold change": -0.236}, {"sequence": "RRIRIRPPRLPRPRPRPYANPRP", "shrunken log2 fold change": -0.0728}, {"sequence": "RRIRIRPPRLPRPRPRPYDSPRP", "shrunken log2 fold change": -0.423}, {"sequence": "RRIRIRPPRLPRPRPRPYDYPRP", "shrunken log2 fold change": -0.0343}, {"sequence": "RRIRIRPPRLPRPRPRPYEHPRP", "shrunken log2 fold change": -0.0784}, {"sequence": "RRIRIRPPRLPRPRPRPYFHPRP", "shrunken log2 fold change": -0.835}, {"sequence": "RRIRIRPPRLPRPRPRPYFRPRP", "shrunken log2 fold change": -0.0907}, {"sequence": "RRIRIRPPRLPRPRPRPYIFPRP", "shrunken log2 fold change": -0.425}, {"sequence": "RRIRIRPPRLPRPRPRPYIYPRP", "shrunken log2 fold change": -0.176}, {"sequence": "RRIRIRPPRLPRPRPRPYKCPRP", "shrunken log2 fold change": -0.199}, {"sequence": "RRIRIRPPRLPRPRPRPYKSPRP", "shrunken log2 fold change": -1.14}, {"sequence": "RRIRIRPPRLPRPRPRPYLIPRP", "shrunken log2 fold change": -1.6}, {"sequence": "RRIRIRPPRLPRPRPRPYLPPRP", "shrunken log2 fold change": -0.206}, {"sequence": "RRIRIRPPRLPRPRPRPYNSPRP", "shrunken log2 fold change": -0.0199}, {"sequence": "RRIRIRPPRLPRPRPRPYNYPRP", "shrunken log2 fold change": -0.65}, {"sequence": "RRIRIRPPRLPRPRPRPYPNPRP", "shrunken log2 fold change": -0.072}, {"sequence": "RRIRIRPPRLPRPRPRPYSLPRP", "shrunken log2 fold change": -0.607}, {"sequence": "RRIRIRPPRLPRPRPRPYSRPRP", "shrunken log2 fold change": -0.0136}, {"sequence": "RRIRIRPPRLPRPRPRPYTHPRP", "shrunken log2 fold change": -1.09}, {"sequence": "RRIRIRPPRLPRPRPRPYTVPRP", "shrunken log2 fold change": -1.32}, {"sequence": "RRIRIRPPRLPRPRPRPYWNPRP", "shrunken log2 fold change": -0.694}, {"sequence": "RRIRIRPPRLPRPRPRPYYFPRP", "shrunken log2 fold change": -1.16}, {"sequence": "RRIRKRPPRLPRPRPRPAAWPRP", "shrunken log2 fold change": 0.443}, {"sequence": "RRIRKRPPRLPRPRPRPACQPRP", "shrunken log2 fold change": 0.0289}, {"sequence": "RRIRKRPPRLPRPRPRPACWPRP", "shrunken log2 fold change": 0.96}, {"sequence": "RRIRKRPPRLPRPRPRPAETPRP", "shrunken log2 fold change": 0.336}, {"sequence": "RRIRKRPPRLPRPRPRPAGDPRP", "shrunken log2 fold change": 0.646}, {"sequence": "RRIRKRPPRLPRPRPRPAGLPRP", "shrunken log2 fold change": 0.126}, {"sequence": "RRIRKRPPRLPRPRPRPAGPPRP", "shrunken log2 fold change": 0.368}, {"sequence": "RRIRKRPPRLPRPRPRPAHFPRP", "shrunken log2 fold change": 0.232}, {"sequence": "RRIRKRPPRLPRPRPRPAHVPRP", "shrunken log2 fold change": 0.03}, {"sequence": "RRIRKRPPRLPRPRPRPAKGPRP", "shrunken log2 fold change": 0.136}, {"sequence": "RRIRKRPPRLPRPRPRPAKVPRP", "shrunken log2 fold change": 0.0797}, {"sequence": "RRIRKRPPRLPRPRPRPAMYPRP", "shrunken log2 fold change": 0.256}, {"sequence": "RRIRKRPPRLPRPRPRPAPIPRP", "shrunken log2 fold change": 0.716}, {"sequence": "RRIRKRPPRLPRPRPRPAQKPRP", "shrunken log2 fold change": -0.0358}, {"sequence": "RRIRKRPPRLPRPRPRPAQYPRP", "shrunken log2 fold change": -0.141}, {"sequence": "RRIRKRPPRLPRPRPRPARFPRP", "shrunken log2 fold change": 0.396}, {"sequence": "RRIRKRPPRLPRPRPRPARIPRP", "shrunken log2 fold change": 0.0491}, {"sequence": "RRIRKRPPRLPRPRPRPARKPRP", "shrunken log2 fold change": -0.0215}, {"sequence": "RRIRKRPPRLPRPRPRPARYPRP", "shrunken log2 fold change": 0.513}, {"sequence": "RRIRKRPPRLPRPRPRPASFPRP", "shrunken log2 fold change": 0.559}, {"sequence": "RRIRKRPPRLPRPRPRPASGPRP", "shrunken log2 fold change": 0.591}, {"sequence": "RRIRKRPPRLPRPRPRPATNPRP", "shrunken log2 fold change": 0.712}, {"sequence": "RRIRKRPPRLPRPRPRPAVDPRP", "shrunken log2 fold change": -0.0502}, {"sequence": "RRIRKRPPRLPRPRPRPAYAPRP", "shrunken log2 fold change": -0.085}, {"sequence": "RRIRKRPPRLPRPRPRPAYDPRP", "shrunken log2 fold change": -0.116}, {"sequence": "RRIRKRPPRLPRPRPRPCAKPRP", "shrunken log2 fold change": 0.54}, {"sequence": "RRIRKRPPRLPRPRPRPCAQPRP", "shrunken log2 fold change": 0.208}, {"sequence": "RRIRKRPPRLPRPRPRPCCAPRP", "shrunken log2 fold change": 1.3}, {"sequence": "RRIRKRPPRLPRPRPRPCCDPRP", "shrunken log2 fold change": 0.217}, {"sequence": "RRIRKRPPRLPRPRPRPCCGPRP", "shrunken log2 fold change": 0.281}, {"sequence": "RRIRKRPPRLPRPRPRPCCIPRP", "shrunken log2 fold change": 0.243}, {"sequence": "RRIRKRPPRLPRPRPRPCDDPRP", "shrunken log2 fold change": -0.0472}, {"sequence": "RRIRKRPPRLPRPRPRPCEEPRP", "shrunken log2 fold change": 0.56}, {"sequence": "RRIRKRPPRLPRPRPRPCEVPRP", "shrunken log2 fold change": 0.0441}, {"sequence": "RRIRKRPPRLPRPRPRPCFEPRP", "shrunken log2 fold change": 0.336}, {"sequence": "RRIRKRPPRLPRPRPRPCGGPRP", "shrunken log2 fold change": 0.225}, {"sequence": "RRIRKRPPRLPRPRPRPCHNPRP", "shrunken log2 fold change": -0.111}, {"sequence": "RRIRKRPPRLPRPRPRPCHSPRP", "shrunken log2 fold change": -0.0177}, {"sequence": "RRIRKRPPRLPRPRPRPCHWPRP", "shrunken log2 fold change": 0.139}, {"sequence": "RRIRKRPPRLPRPRPRPCINPRP", "shrunken log2 fold change": -0.162}, {"sequence": "RRIRKRPPRLPRPRPRPCKAPRP", "shrunken log2 fold change": 0.0525}, {"sequence": "RRIRKRPPRLPRPRPRPCLKPRP", "shrunken log2 fold change": -0.0379}, {"sequence": "RRIRKRPPRLPRPRPRPCMGPRP", "shrunken log2 fold change": 0.045}, {"sequence": "RRIRKRPPRLPRPRPRPCPDPRP", "shrunken log2 fold change": -0.0203}, {"sequence": "RRIRKRPPRLPRPRPRPCQEPRP", "shrunken log2 fold change": -0.0342}, {"sequence": "RRIRKRPPRLPRPRPRPCQMPRP", "shrunken log2 fold change": -0.0362}, {"sequence": "RRIRKRPPRLPRPRPRPCRQPRP", "shrunken log2 fold change": -0.166}, {"sequence": "RRIRKRPPRLPRPRPRPCSNPRP", "shrunken log2 fold change": -0.0227}, {"sequence": "RRIRKRPPRLPRPRPRPCTCPRP", "shrunken log2 fold change": 0.00906}, {"sequence": "RRIRKRPPRLPRPRPRPCTEPRP", "shrunken log2 fold change": 0.0485}, {"sequence": "RRIRKRPPRLPRPRPRPCTHPRP", "shrunken log2 fold change": -0.14}, {"sequence": "RRIRKRPPRLPRPRPRPCWQPRP", "shrunken log2 fold change": 0.154}, {"sequence": "RRIRKRPPRLPRPRPRPCWWPRP", "shrunken log2 fold change": 0.284}, {"sequence": "RRIRKRPPRLPRPRPRPCYAPRP", "shrunken log2 fold change": 0.083}, {"sequence": "RRIRKRPPRLPRPRPRPDCTPRP", "shrunken log2 fold change": 1.22}, {"sequence": "RRIRKRPPRLPRPRPRPDDFPRP", "shrunken log2 fold change": -0.00262}, {"sequence": "RRIRKRPPRLPRPRPRPDDHPRP", "shrunken log2 fold change": 0.0199}, {"sequence": "RRIRKRPPRLPRPRPRPDDYPRP", "shrunken log2 fold change": 0.276}, {"sequence": "RRIRKRPPRLPRPRPRPDFAPRP", "shrunken log2 fold change": -0.033}, {"sequence": "RRIRKRPPRLPRPRPRPDFPPRP", "shrunken log2 fold change": 0.416}, {"sequence": "RRIRKRPPRLPRPRPRPDGFPRP", "shrunken log2 fold change": 0.0522}, {"sequence": "RRIRKRPPRLPRPRPRPDHYPRP", "shrunken log2 fold change": -0.0322}, {"sequence": "RRIRKRPPRLPRPRPRPDIVPRP", "shrunken log2 fold change": 1.54}, {"sequence": "RRIRKRPPRLPRPRPRPDIYPRP", "shrunken log2 fold change": 0.152}, {"sequence": "RRIRKRPPRLPRPRPRPDKNPRP", "shrunken log2 fold change": 0.159}, {"sequence": "RRIRKRPPRLPRPRPRPDLCPRP", "shrunken log2 fold change": 0.741}, {"sequence": "RRIRKRPPRLPRPRPRPDNGPRP", "shrunken log2 fold change": -0.0558}, {"sequence": "RRIRKRPPRLPRPRPRPDNLPRP", "shrunken log2 fold change": -0.0561}, {"sequence": "RRIRKRPPRLPRPRPRPDPDPRP", "shrunken log2 fold change": 0.431}, {"sequence": "RRIRKRPPRLPRPRPRPDPPPRP", "shrunken log2 fold change": 0.927}, {"sequence": "RRIRKRPPRLPRPRPRPDQIPRP", "shrunken log2 fold change": -0.0414}, {"sequence": "RRIRKRPPRLPRPRPRPDQPPRP", "shrunken log2 fold change": -0.018}, {"sequence": "RRIRKRPPRLPRPRPRPDQYPRP", "shrunken log2 fold change": 0.0833}, {"sequence": "RRIRKRPPRLPRPRPRPDSAPRP", "shrunken log2 fold change": 0.115}, {"sequence": "RRIRKRPPRLPRPRPRPDSLPRP", "shrunken log2 fold change": 0.00855}, {"sequence": "RRIRKRPPRLPRPRPRPDSPPRP", "shrunken log2 fold change": -0.0585}, {"sequence": "RRIRKRPPRLPRPRPRPDTSPRP", "shrunken log2 fold change": 0.0236}, {"sequence": "RRIRKRPPRLPRPRPRPDTYPRP", "shrunken log2 fold change": -0.0205}]}]}
